Measured values: patent publication US20220242962A1 (APTEVO RESEARCH AND DEVELOPMENT, published 2022)

T1: Full-length Human OX40 (human, UniProt P43489 29-277)
T1 sequence: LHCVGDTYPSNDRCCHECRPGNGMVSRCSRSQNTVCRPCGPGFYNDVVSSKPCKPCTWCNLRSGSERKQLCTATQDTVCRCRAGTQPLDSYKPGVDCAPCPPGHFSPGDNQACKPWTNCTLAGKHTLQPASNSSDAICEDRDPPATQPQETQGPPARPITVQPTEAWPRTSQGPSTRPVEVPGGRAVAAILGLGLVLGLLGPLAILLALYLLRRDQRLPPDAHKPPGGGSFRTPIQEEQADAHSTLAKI

T2: Human OX40 ECD-AFH (human)
T2 construct: ECD'; entry includes the C-terminal tags; also called OXF003; Human OX40 ECD-avi-flag-his
T2 chain: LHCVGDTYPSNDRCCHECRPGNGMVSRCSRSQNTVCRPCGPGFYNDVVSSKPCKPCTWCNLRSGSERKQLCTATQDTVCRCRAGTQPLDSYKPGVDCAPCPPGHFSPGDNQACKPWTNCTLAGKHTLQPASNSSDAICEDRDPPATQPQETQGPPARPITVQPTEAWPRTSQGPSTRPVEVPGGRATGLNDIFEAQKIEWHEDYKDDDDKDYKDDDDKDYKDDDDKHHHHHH

T3: Cyno OX40-AFH (cynomolgus monkey)
T3 construct: entry includes the tags; also called OXF005; cyno OX40 ECD
T3 chain: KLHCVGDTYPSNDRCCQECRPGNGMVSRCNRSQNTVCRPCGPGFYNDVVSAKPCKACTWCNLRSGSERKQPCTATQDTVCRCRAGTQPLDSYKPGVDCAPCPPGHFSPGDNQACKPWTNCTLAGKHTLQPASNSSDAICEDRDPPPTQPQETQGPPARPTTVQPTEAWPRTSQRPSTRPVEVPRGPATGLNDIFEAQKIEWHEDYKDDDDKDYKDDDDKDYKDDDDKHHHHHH

T4: Cyno 4-1BB ECD-AFH (cynomolgus monkey)
T4 construct: entry includes the tags; also called FOB004; Cyno CD137 ECD-avi-flag-his
T4 chain: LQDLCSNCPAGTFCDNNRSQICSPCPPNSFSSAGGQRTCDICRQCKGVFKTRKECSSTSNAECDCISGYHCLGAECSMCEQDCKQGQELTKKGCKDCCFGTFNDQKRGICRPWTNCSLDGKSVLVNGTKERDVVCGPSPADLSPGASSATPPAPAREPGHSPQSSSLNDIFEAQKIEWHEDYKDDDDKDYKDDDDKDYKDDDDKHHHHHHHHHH

T5: Full-length Cyno OX40 (cynomolgus monkey, UniProt P43489 29-277 (human entry))
T5 construct: on CHO-K1SV cells; also called OXF004; cynomolgus OX40
T5 chain: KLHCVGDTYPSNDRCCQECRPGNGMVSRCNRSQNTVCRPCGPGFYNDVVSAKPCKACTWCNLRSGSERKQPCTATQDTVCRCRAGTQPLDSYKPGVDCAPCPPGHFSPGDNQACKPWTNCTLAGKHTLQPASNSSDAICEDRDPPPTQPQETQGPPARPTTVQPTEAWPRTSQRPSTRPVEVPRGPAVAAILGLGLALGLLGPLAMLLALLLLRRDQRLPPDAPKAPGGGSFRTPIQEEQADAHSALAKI

T6: Full-length Cyno 4-1BB (cynomolgus monkey, UniProt Q07011 24-255 (human entry))
T6 construct: on Jurkat or CHO cells; also called FOB006; cynomolgus 4-1BB
T6 chain: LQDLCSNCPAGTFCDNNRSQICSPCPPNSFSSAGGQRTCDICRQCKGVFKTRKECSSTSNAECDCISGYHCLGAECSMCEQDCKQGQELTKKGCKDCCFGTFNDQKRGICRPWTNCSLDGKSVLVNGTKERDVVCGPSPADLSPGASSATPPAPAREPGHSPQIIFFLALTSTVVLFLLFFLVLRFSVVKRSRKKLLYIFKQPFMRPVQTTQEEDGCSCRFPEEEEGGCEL

B1: FXX01120 (bispecific antibody)
chain: EVQLVQSGAEVKKPGASVKVSCKASGYTFTSYWMNWVRQAPGQGLEWMGNIYPSGGSTNYAQKFQGRVTMTVDTSTSTVYMELSSLRSEDTAVYYCASFSDGYYAYAMDYWGQGTLVTVSSGGGGSGGGGSGGGGSGGGGSEIVMTQSPATLSLSPGERATLSCRASQSVSSYLNWYQQKPGQAPRLLIYYASRRHTGIPARFSGSGSGTDFTLTISSLQPEDFAVYYCQQGYNLPYTFGQGTKVEIKEPKSSDKTHTCPPCPAPPAAAPSVFLFPPKPKDTLMISRTPEVTCVVVDVSHEDPEVKFNWYVDGVEVHNAKTKPREEQYNSTYRVVSVLTVLHQDWLNGKEYKCAVSNKALPAPIEKTISKAKGQPREPQVYTLPPSRDELTKNQVSLTCLVKGFYPSDIAVEWESNGQPENNYKTTPPVLDSDGSFFLYSKLTVDKSRWQQGNVFSCSVMHEALHNHYTQKSLSLSPGGGGSPSSYVLTQPPSVSVAPGKTARITCGGNNIGSKSVNWFQQKPGQAPVLVVYDDSGRPSGVPSRFSGSTSGNTATLTISRVEAGDEADYYCQVWDSSSDHVVFGGGTKLTVLGGGGSGGGGSGGGGSGGGGSQVQLVESGGGVVQPGRSLRLSCAASGFTLSYYGMHWVRQAPGKGLEWVAAISHDGSDKYYADSVKGRFTISRDNSKNRLYLQMNSLRAEDTAVYYCSNDQFDPWGQGTLVTVSSR
notes: ADAPTIR anti-4-1BB x anti-OX40, pI variant
B2: FXX01121 (bispecific antibody)
chain: EVQLVQSGAEVKKPGASVKVSCKASGYTFTSYWMNWVRQAPGQGLEWMGNIYPSGGSTNYAQKFQGRVTMTVDTSTSTVYMELSSLRSEDTAVYYCASFSDGYYAYAMDYWGQGTLVTVSSGGGGSGGGGSGGGGSGGGGSEIVMTQSPATLSLSPGERATLSCRASQSVSSYLNWYQQKPGQAPRLLIYYASRRHTGIPARFSGSGSGTDFTLTISSLQPEDFAVYYCQQGYNLPYTFGQGTKVEIKEPKSSDKTHTCPPCPAPPAAAPSVFLFPPKPKDTLMISRTPEVTCVVVDVSHEDPEVKFNWYVDGVEVHNAKTKPREEQYNSTYRVVSVLTVLHQDWLNGKEYKCAVSNKALPAPIEKTISKAKGQPREPQVYTLPPSRDELTKNQVSLTCLVKGFYPSDIAVEWESNGQPENNYKTTPPVLDSDGSFFLYSKLTVDKSRWQQGNVFSCSVMHEALHNHYTQKSLSLSPGGGGSPSSYVLTQPPSVSVAPGKTARITCGGNNIGSKSVNWFQQKPGQAPVLVVYDDSGRPSGIPKRFSGSTSGNTATLTISRVEAGDEADYYCQVWDSSSDHVVFGGGTKLTVLGGGGSGGGGSGGGGSGGGGSQVQLVESGGGVVQPGRSLRLSCAASGFTLSYYGMHWVRQAPGKGLEWVAAISHDGSDKYYADSVKGRFTISRDNSKNRLYLQMNSLRAEDTAVYYCSNDQFDPWGQGTLVTVSSR
notes: as for B1

Assays:
[1] = biological target: Full-length Human 4-1BB (human, UniProt Q07011 24-255); assay: cell-based or functional assay
[2] = biological target: T1, Full-length Human OX40; assay: cell-based or functional assay
[3] = biological target: T2, Human OX40 ECD-AFH; assay: SPR (Biacore 8K), construct captured, monovalent ECD
Description: (§1) Mouse anti-human IgG (GE, BR-1008-39) at 25 μg/ml in 10 mM sodium acetate pH 5.0 was immobilized at a density of ˜10,000 response units (RU) onto each flow cell of a CM5 research-grade sensor chip (GE) by standard amine coupling chemistry. Each binding protein at approximately 100 nM in HBS-EP+ with 0.2% BSA buffer was captured in a flow cell with the immobilized anti-human IgG at a flow rate of 10 μL/min for 20 seconds, leaving one flow cell surface unmodified as the reference. Using a single-cycle kinetics mode, five different concentrations of ECD were sequentially injected through each flow cell at 30 μL/min for 300 seconds followed by a 600 second dissociation period. Regeneration was achieved by injection of 3 M MgCl₂ at a flow rate of 30 μL/min for 30 seconds followed by HBS-EP+ with 0.2% BSA buffer stabilization for 1 min.
(§2) Sensorgrams obtained from kinetic SPR measurements were analyzed by the double subtraction method. The signal from the reference flow cell was subtracted from the analyte binding response obtained from flow cells with immobilized or captured ligands. Buffer reference responses were then averaged from multiple injections. The averaged buffer reference responses were then subtracted from analyte binding responses, and the final double-referenced data were analyzed with Biacore T200 Evaluation software (2.0, GE), globally fitting data to derive kinetic parameters. All sensorgrams were fitted using a simple one-to-one binding model.
(§3) Using the BIACORE 8K SPR system, the affinity of these constructs for human and cyno 4-1BB, and human and cyno OX40 ECD, were determined using the methods described above. Monovalent binding affinity was determined by capturing the ADAPTIR™ bispecific construct on the chip and injecting monovalent ECD of the target at multiple concentrations.

[4] = biological target: T3, Cyno OX40-AFH; assay: as above
Description: as §1, §2, §3

[5] = biological target: T7, Human 4-1BB ECD-AFH (human); assay: as above
T7 construct: entry includes the tags; also called FOB003; HUMAN CD137 ECD-AVI-FLAG-HIS
Description: as §1, §2, §3

[6] = biological target: T4, Cyno 4-1BB ECD-AFH; assay: as above
Description: as §1, §2, §3

[7] = biological target: T5, Full-length Cyno OX40; assay: flow cytometry on CHOK1SV cells transfected with cynomolgus OX40, goat anti-human Fc secondary antibody, MFI (Mean)
Description: (§4) Serial dilutions of ADAPTIR™ constructs were incubated with transfected target cells and subsequently labelled with a fluorescently-conjugated goat-a-human Fc secondary antibody. […] (See Example 25.)

[8] = biological target: T6, Full-length Cyno 4-1BB; assay: flow cytometry on Jurkat cells transfected with cynomolgus 4-1BB, goat anti-human Fc secondary antibody, MFI (Mean)
Description: as §4

Binder | 4-1BB Reporter Assay EC50 [1] [nM] | 4-1BB Reporter Assay Max induction [1] | OX40 Reporter Assay EC50 [2] [nM] | OX40 Reporter Assay Max induction [2] | Kd [3] [nM] | koff [3] [s⁻¹] | kon [3] [M⁻¹ s⁻¹] | Kd [4] [nM] | koff [4] [s⁻¹] | kon [4] [M⁻¹ s⁻¹] | Kd [5] [nM] | koff [5] [s⁻¹] | kon [5] [M⁻¹ s⁻¹] | Kd [6] [nM] | koff [6] [s⁻¹] | kon [6] [M⁻¹ s⁻¹] | EC50 (read off the curve) [7] [nM] | EC50 (read off the curve) [8] [nM]
B1 | 0.015 | 1.38e+06 | 0.012 | 6.12e+06 | 0.4 | 0.00039 | 1e+06 | 0.2 | 0.00023 | 950000 | 18 | 0.0046 | 260000 | 77 | 0.0075 | 97000 | 1 to 2 | ~0.3
B2 | 0.016 | 1.43e+06 | 0.016 | 6.19e+06 | 0.1 | 0.00013 | 1.2e+06 | 0.2 | 0.00018 | 1e+06 | 9 | 0.0036 | 390000 | 30 | 0.013 | 420000 | 1 to 2 | ~0.3
